{"source": "patent US20250341526A1", "about": "“NOVEL DYES” (Quantum-Si Incorporated, priority 2024, published 2025)", "origin": "cited, not measured here"}
{"system": "amino acid at a terminal position of a polypeptide", "details": "Table 1, ClpS proteins; amino acid at terminal position; inferred from literature and/or demonstrated by the inventors; cited from earlier work"}
{"molecule": "PS376: ClpS amino acid recognition protein, SEQ ID NO: 9 (protein) MPTNDLDLLEKQDVKIERPKMYQVVMYNDDFTPFDFVVAVLMQFFNKGMDEATAIMMQVHMQGKGICGVFPKDIAETKATEVMKWAKVEQHPLRLQVEAQA", "Binding Pref.": "F, W, L"}
{"molecule": "PS572: ClpS amino acid recognition protein, SEQ ID NO: 86 (protein, listed as Blastopirellula marina) MSSEELSLQTRPKRQPPFGVILHNDDLNSFDYVIDSIRKVFHYELEKCFQLTLEAHETGRSLLWTGTLEGAELKQELLLSCGPDPIMLDKGGLPLKVTLEELPQ", "Binding Pref.": "I, L, V"}
{"molecule": "PS574: ClpS amino acid recognition protein, SEQ ID NO: 88 (protein, listed as Gemmata obscuriglobus) MANATPTPDVVPEEETETRTRRQPPYAVVLHNDDTNTMDFVVTVLRKVFGYTVEKCVELMLEAHTQGKVAVWIGALEVAELKADQIKSFGPDPHVTKNGHPLGVTVEPAA", "Binding Pref.": "I, L, V"}
{"molecule": "PS374: ClpS amino acid recognition protein, SEQ ID NO: 7 (protein) MRWEDPLAAEPVTPGVAPVVEEETDAAVETPWRVILYDDDIHTFEEVILQLMKATGCTPEQGERHAWTVHTRGKDCVYQGDFFDCFRVQGVLREIQLVTEIEG", "Binding Pref.": "F, Y, W, L"}
{"molecule": "PS563: ClpS amino acid recognition protein, SEQ ID NO: 77 (protein, listed as Acidobacteria bacterium) MSSRSATAYPEVEDDTSDQLQPLYHVILLNDEDHTYDYVIEMLQKIFGFPESKAFSHAVEVDTKGTTILLTCDLEQAERKRDLIHSYGPDWRLPRSLGSMAAVVEPAAG", "Binding Pref.": "I, L, V"}
{"molecule": "PS565: ClpS amino acid recognition protein, SEQ ID NO: 79 (protein, listed as Aquisphaera sp.) MSEFDHEHSGDTSVADPIVTTKTAPKPQKHAENETETRRQPPYNVIILNDEEHTFDYVIELLCKVFRHSLATAQELTWRIHLTGRAVVLTTHKELAELKRDQVLAYGPDPRMSVSKGPLDCFIEPAPGG", "Binding Pref.": "I, L, V"}
{"molecule": "PS561: ClpS amino acid recognition protein, SEQ ID NO: 75 (protein, listed as Roseimaritima sp.) MAELQTAVVEPTTRPEQDEKQSQSRPKRQPRYNVILWDDPDHSYDYVIMMLKELFGHPRQRGHQMAEEVDTTGRVICLTTTMEHAELKRDQIHAYGSDEGITRCKGSMSASIEPVPE", "Binding Pref.": "I, L, V"}
{"molecule": "PS577: ClpS amino acid recognition protein, SEQ ID NO: 91 (protein, listed as Tuwongella immobilis) MSASSSQPGTTTKPDLDIQPRLLPPFHVILENDEFHSMEFVIDTLRKVLGVSIERAYQLMMTAHESGQAIIWTGPKEVAELKYEQVIGFHEKRSDGRDLGPLGCRIEPAV", "Binding Pref.": "I, L, V"}
{"molecule": "Agrobacterium tumifaciens ClpS2 (atClpS2): ClpS amino acid recognition protein, SEQ ID NO: 94 (protein, listed as Agrobacterium tumifaciens) MSDSPVDLKPKPKVKPKLERPKLYKVMLLNDDYTPREFVTVVLKAVFRMSEDTGRRVMMTAHRFGSAVVVVCERDIAETKAKEATDLGKEAGFPLMFTTEPEE", "Binding Pref.": "F, W, Y"}
{"molecule": "atClpS2-V1 + C72S: ClpS amino acid recognition protein, SEQ ID NO: 101 (protein) MSDSPVDLKPKPKVKPKLERPKLYKVMLLNDDYTPMSFVTVVLKAVFRMSEDTGRRVMMTAHRFGSAVVVVSERDIAETKAKEATDLGKEAGFPLMFTTEPEE", "Binding Pref.": "F, W, Y"}
{"molecule": "atClpS2 C72S: ClpS amino acid recognition protein, SEQ ID NO: 100 (protein) MSDSPVDLKPKPKVKPKLERPKLYKVMLLNDDYTPREFVTVVLKAVFRMSEDTGRRVMMTAHRFGSAVVVVSERDIAETKAKEATDLGKEAGFPLMFTTEPEE", "Binding Pref.": "F, W, Y"}
{"molecule": "PS578: ClpS amino acid recognition protein, SEQ ID NO: 92 (protein, listed as Planctomycetes bacterium) MSGTVVESKPRNSTQLAPRWKVIVHDDPVTTFDFVLGVLRRVFAKPPGEARRITREAHDTGSALVDVLALEQAEFRRDQAHSLARAEGFPLTLTLEPAD", "Binding Pref.": "I, L, V"}
{"molecule": "PS569: ClpS amino acid recognition protein, SEQ ID NO: 83 (protein, listed as Planctomycetes bacterium) MYSKNQIKIYCSEDDKGQTATPLLEKKPKFAPLYHVILWDDNTHTYEYVIKLLMSLFRMTFEKAYQHTLEVDKKGRTICITTHLEKAELKQEQISNFGPDILMQNSKGPMSATIEPAN", "Binding Pref.": "I, L, V"}
{"molecule": "PS562: ClpS amino acid recognition protein, SEQ ID NO: 76 (protein, listed as Rubripirellula amarantea) MSDQQSMVAEPEVVVHTQDEKKLEKQNKRKKQPRYNVVLWDDTDHSYDYVVLMMKQLFHHPIETGFQIAKQVDKGGKAICLTTTMEHAELKRDQIHAFGKDDLIARCTGSMSATIEPVPE", "Binding Pref.": "I, L, V"}
{"molecule": "PS566: ClpS amino acid recognition protein, SEQ ID NO: 80 (protein, listed as Planctomycetaceae bacterium) MSSPSSLDDVQVSTSRAKPANETRTRKQPPYAVIVENDDHHTFLYVIEALMKVCGHAPEKGFVLAQQIHTQGKAMVWSGTLELAELKRDQLRGFGPDNYAPRPVTFPLGVTIEPLP", "Binding Pref.": "I, L, V"}
{"molecule": "PS575: ClpS amino acid recognition protein, SEQ ID NO: 89 (protein, listed as Leptospira kmetyi) MASTQTPDLNEITEESTKSTGGPWRVVLWDDNEHTYEYVIEMLMEICTMTVEKAFLHAVQVDQEKRTVVFSGEFEHAEHVQERILTYGADPRMSNSKGSMSATLEK", "Binding Pref.": "I, L, V"}
{"molecule": "PS576: ClpS amino acid recognition protein, SEQ ID NO: 90 (protein, Leptospira interrogans) MASTQTPDLNEITEESTKSTGGPWRVVLWDDNEHTYEYVIEMLVEICMMTVEKAFLHAVQVDKEKRTVDFSGELEHAEHVQERILNYGADPRMSNSKGSMSATLER", "Binding Pref.": "I, L, V"}
{"molecule": "PS567: ClpS amino acid recognition protein, SEQ ID NO: 81 (protein, listed as Planctomycetaceae bacterium) MADYEDAGEDALEDDFDHGTVTVAPQKPEPKKQSENKRQANRQPRYNVLLWDSEDHTFEYVEKMLRELFGHIKKQCQIIAEQVDQEGRAVVLTTTLEHAELKRDQIHAYGKDQLEGSKGSMWSTIEAVD", "Binding Pref.": "I, L, V"}
{"molecule": "PS570: ClpS amino acid recognition protein, SEQ ID NO: 84 (protein, listed as Leptospira congkakensis) MTGAGASQPSILEETEVRPRLSDGPWKVVLWDDDFHTYEYVIEMLMDVCQMPWEKAFQHAVEVDTRKKTIVFSGELEHAEFVHERILNYGPDPRMGSSKGSMTATLEQ", "Binding Pref.": "I, L, V"}
{"molecule": "PS571: ClpS amino acid recognition protein, SEQ ID NO: 85 (protein, listed as Leptospira meyeri) MTSSGASQPSILEETERKPRLSDGPWKVVLWDDDFHTYEYVIEMLMDVCQMPWEKAFQHAVEVDTRKKTIVFFGELEHAEFVHERILNYGPDPRMGTSKGSMTATLEK", "Binding Pref.": "I, L, V"}
{"molecule": "PS568: ClpS amino acid recognition protein, SEQ ID NO: 82 (protein, listed as Dehalococcoidia bacterium) MTTPSLPTRETEVEERTEVEPERLYHLVLLDDDQHSYQYVIEMLASIFGYGSEKAWTLARIVDTEGRAILETASHAQCERHQSQIHAYGADSRIPTSVGSMSAVIEEAGTPPQT", "Binding Pref.": "I, L, V"}
{"molecule": "PS375: ClpS amino acid recognition protein, SEQ ID NO: 8 (protein) MEAEPETKVLASIPGVGTSEPFRVVLFNDEEHSFDEVIFQIIKAVRCSRAKAEALTMEVHNSGRSIVYTGPIEQCIRVSAVLEEIELRTEIQS", "Binding Pref.": "F, L"}
{"molecule": "Agrobacterium tumifaciens ClpS1 (atClpS1): ClpS amino acid recognition protein, SEQ ID NO: 93 (protein, listed as Agrobacterium tumifaciens) MIAEPICMQGEGDGEDGGTNRGTSVITRVKPKTKRPNLYRVLLLNDDYTPMEFVIHILERFFQKDREAATRIMLHVHQHGVGECGVFTYEVAETKVSQVMDFARQHQHPLQCVMEKK", "Binding Pref.": "F, W, Y, L"}
{"molecule": "PS218: ClpS amino acid recognition protein, SEQ ID NO: 98 (protein) MIAEPICMQGEGDGEDGGTNRGTSVITRVKPKTKRPNLYRVLLLNDDYTPFQFVIHILERFFQKDREAAWRITLHVHQHGVGECGVFTYEVAETKVSQVMDFARQHQHPLQCVMEKK", "Binding Pref.": "F, W, Y, L"}
{"molecule": "PS573: ClpS amino acid recognition protein, SEQ ID NO: 87 (protein, listed as Leptospira fluminis) MSQTPVIEETTVKDPVKTGGPWKVVLWDDDEHTYDYVIEMLMEVCVMTMEQAFHHAVEVDTQKKTVVYSGEFEHAEHIQELILEYGPDPRMAVSKGSMSATLEKS", "Binding Pref.": "I, L, V"}
{"molecule": "PS564: ClpS amino acid recognition protein, SEQ ID NO: 78 (protein, listed as Planctomycetes bacterium) MFEEVVSVAVAEPKTKKQSRTKPKRQPPYHVILWDDTDHTFDYVIKMMGELFRMPREKGYQLAKEVDTSGRAICMTTTLELAELKRDQIHAFGRDDASAHCKGSMSATIEPAEG", "Binding Pref.": "I, L, V"}
